Results on one substance are retold here after patent US20220153838A1.

This test deals with CD19 (UniProt P15391). Put plainly: cell-based or functional assay.
UniProt P15391, sequence (P15391 20-556 limits assumed): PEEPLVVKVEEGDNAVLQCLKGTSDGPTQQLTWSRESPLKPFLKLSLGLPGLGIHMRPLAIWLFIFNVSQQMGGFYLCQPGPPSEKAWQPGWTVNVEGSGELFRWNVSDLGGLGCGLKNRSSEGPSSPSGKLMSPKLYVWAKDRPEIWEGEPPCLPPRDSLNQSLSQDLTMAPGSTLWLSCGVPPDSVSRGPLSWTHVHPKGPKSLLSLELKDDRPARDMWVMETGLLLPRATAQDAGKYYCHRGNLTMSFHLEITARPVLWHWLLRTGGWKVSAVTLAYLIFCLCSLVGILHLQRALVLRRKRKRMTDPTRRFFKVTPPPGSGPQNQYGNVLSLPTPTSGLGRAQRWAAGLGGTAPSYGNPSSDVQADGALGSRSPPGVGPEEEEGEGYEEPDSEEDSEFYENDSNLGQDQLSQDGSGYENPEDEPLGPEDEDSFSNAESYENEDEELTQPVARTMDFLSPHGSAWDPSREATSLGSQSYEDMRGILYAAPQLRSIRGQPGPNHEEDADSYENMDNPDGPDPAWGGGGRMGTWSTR

FMC63-CD8BBZ CAR, sequence (Q07011 209-255): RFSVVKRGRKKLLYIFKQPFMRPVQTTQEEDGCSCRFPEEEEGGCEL

Turning to FMC63-CD8BBZ CAR, the IFNγ ELISA, CAR T-cells cultured overnight with CD19-K562 cells worked out at 44300 pg/mL IFNγ and the IFNγ ELISA, CAR T-cells cultured overnight with primary CLL cells (CD19-Positive Targets) stood at 13900 pg/mL IFNγ.
